Assay [1] has as its target T1, human TGFβ2, mature receptor-binding domain (human, UniProt P09858 303-414 (pig entry), The mature TGFβ2 is a disulfide-linked homodimer of this 112-residue chain. The 4A11 epitope spans both monomers (p-1207).).
T1 construct: Peprotech; also called TGFb2
T1 sequence: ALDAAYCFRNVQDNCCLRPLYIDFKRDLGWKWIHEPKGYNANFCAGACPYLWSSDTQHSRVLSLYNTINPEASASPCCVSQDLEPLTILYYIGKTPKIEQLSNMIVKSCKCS
The assay can be described thus: BIAcore T200. The procedure:
(§1) For binding affinity determinations of all humanized 2A10 antibodies, Surface Plasmon Resonance (SPR) measurement with a BIAcore™-T200 instrument was used. Briefly, series S CM5 biosensor chip with protein A was first applied to capture each humanized 2A10 variant to achieve approximately 100 response units (RU) on each flow cell, following by injection of 3-fold serial dilutions of human TGFβ1, TGFβ2 or TGFβ3 (0.02 nM to 5 nM) in HBS-EP buffer (0.01M HEPES pH 7.4, 0.15M NaCl, 3 mM EDTA and 0.05% v/v surfactant P20) at 25° C. with a flow rate of 50 μl/min for kinetics measurement. Association rates (ko.) and dissociation rates (koff) were calculated using a simple one-to-one Langmuir binding model (BIAcore T200 evaluation software version 2.0) to determine the equilibrium dissociation constant (KD), which was calculated as the ratio koff/kₒₙ.
(§2) Binding affinity determinations of all humanized 4A11 antibodies were performed using SPR measurement with a BIAcore™-T200 instrument, as described above in Example 6 ([…]).

Assay [2] deals with T2, human TGFβ3, mature dimeric form (human, UniProt P10600 301-412).
T2 construct: Peprotech, expressed in E. coli; also called TGFb3
T2 sequence: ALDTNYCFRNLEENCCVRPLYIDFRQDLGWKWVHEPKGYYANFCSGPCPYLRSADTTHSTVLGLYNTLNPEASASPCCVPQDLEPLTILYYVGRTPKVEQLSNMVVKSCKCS
The assay can be described thus: BIAcore T200. The procedure: as §1, §2

For assay [3], the target named is T3, human TGFβ1, mature receptor-binding domain (human, UniProt P01137 279-390). Put plainly: cell-based or functional assay.
T3 sequence (P01137 279-390 limits assumed): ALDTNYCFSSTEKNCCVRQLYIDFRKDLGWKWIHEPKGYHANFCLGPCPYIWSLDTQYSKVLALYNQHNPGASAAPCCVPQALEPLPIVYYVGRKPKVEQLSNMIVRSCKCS
Assay [4] addresses T1, human TGFβ2, mature receptor-binding …. Put plainly: cell-based or functional assay.
In assay [5] the target is T2, human TGFβ3, mature dimeric form. Put plainly: cell-based or functional assay.
The target is the same in assay [6]. Put plainly: BIAcore T200. This is another data set of the same source. (In general: Surface plasmon resonance follows binding to a sensor surface in real time, without labels.)
Assay [7] concerns the target T1, human TGFβ2, mature receptor-binding …. Put plainly: BIAcore T200. The method, then:
as §1
This is another data set of the same source.

For assay [8], the target named is T2, human TGFβ3, mature dimeric form. Put plainly: BIAcore T200. The method, then:
as §1
This is another data set of the same source.

Assay [9] has the same target. Put plainly: cell-based or functional assay. The source holds these as a separate data set.
Assay [10] deals with T3, human TGFβ1, mature receptor-binding …. The assay can be described thus: cell-based or functional assay. The source holds these as a separate data set.
The target of assay [11] is T1, human TGFβ2, mature receptor-binding …. Put plainly: cell-based or functional assay. This is another data set of the same source.
Assay [12] concerns the target T2, human TGFβ3, mature dimeric form. Put plainly: cell-based or functional assay. The source holds these as a separate data set.
Assay [13] deals with T1, human TGFβ2, mature receptor-binding …. The assay can be described thus: BIAcore T200. The source holds these as a separate data set.
Assay [14] shares this target. Put plainly: cell-based or functional assay. The source holds these as a separate data set.
Assay [15] has as its target T3, human TGFβ1, mature receptor-binding …. The assay can be described thus: cell-based or functional assay. The source holds these as a separate data set.
Assay [16] concerns the target T1, human TGFβ2, mature receptor-binding …. The assay can be described thus: cell-based or functional assay. This is another data set of the same source.
In assay [17] the target is T2, human TGFβ3, mature dimeric form. Put plainly: cell-based or functional assay. The source holds these as a separate data set.

One may read the Kd as the constant that tells how readily two partners part at equilibrium. High values mean lower affinity, low ones higher affinity.

Read-outs that look alike come from different tables or passages of the source. Where only a bound is given, the exact number is not on record here.

B1: h4A11.v7.16 (antibody, human IgG1, kappa, N297G, V domains shown)
VH: EVQLQESGPGLVKPSETLSLTCTVTGFSLSSYTVNWIRQPAGKGLEWIGYISYGGSAYYASWANGRVTISKDTSKNQFSLKLSSVTAADTAVYFCARHMQVGGAPTGSMAAFDPWGQGTLVTVSS
VL: EIVLTQSPGTLSLSPGERATLSCQSSQSVYNNNYLSWFQQKPGQAPRLLIYGASTLTSGIPDRFSGSGSGTDFTLTISRLEPEDFAVYYCAGGYSGSSDKYAFGGGTKVEIKR
As for B1, the Kd in [1] was 0.0049 nM; in assay [2], 0.0066 nM. The “HEKBlue TGFβ blocking IC50” value in [3] was > 200 nM; in [4], 0.09 nM; in [5] it was 0.13 nM.

B2: h4A11.v7.19 (antibody, human IgG1, kappa, N297G, V domains shown)
VH: EVQLQESGPGLVKPSETLSLTCTVTGFSLSSYTVNWIRQPAGKGLEWIGYISYGGSAYYASWANGRVTISKDTSQVSLKLSSVTAADTAVYFCARHMQVGGAPTGSMAAFDPWGQGTLVTVSS
VL: EIVLTQSPGTLSLSPGERATLSCQSSQSVYNNNYLSWFQQKPGQAPRLLIYGASTLTSGIPDRFSGSGSGTDFTLTISRLEPEDFAVYYCAGGYSGSSDKYAFGGGTKVEIKR
In the case of B2, the Kd in assay [1] was 0.001 nM; in assay [2], ≤ 0.0013 nM. The “HEKBlue TGFβ blocking IC50” value in [3] is > 200 nM; in assay [4], 0.05 nM; in [5], 0.09 nM.

B3: h4A11.v7.18 (antibody, human IgG1, kappa, N297G, V domains shown)
VH: EVQLQESGPGLVKPSETLSLTCTVTGFSLSSYTVNWIRQPAGKGLEWIGYISYGGSAYYASWANGRVTISKDTSKNQVSLKLSSVTAADTAVYFCARHMQVGGAPTGSMAAFDPWGQGTLVTVSS
VL: EIVLTQSPGTLSLSPGERATLSCQSSQSVYNNNYLSWFQQKPGQAPRLLIYGASTLTSGIPDRFSGSGSGTDFTLTISRLEPEDFAVYYCAGGYSGSSDKYAFGGGTKVEIKR
Turning to B3, the Kd in assay [1] was found to be 0.0011 nM; in [2], 0.0046 nM. Also, the “HEKBlue TGFβ blocking IC50” value was > 200 nM in assay [3], 0.09 nM in assay [4] and 0.11 nM in assay [5].

B4: h4A11.v7.17 (antibody, human IgG1, kappa, N297G, V domains shown)
VH: EVQLQESGPGLVKPSETLSLTCTVTGFSLSSYTVNWIRQPAGKGLEWIGYISYGGSAYYASWANGRVTISKDTSKNQVSLKLSSVTAADTAVYYCARHMQVGGAPTGSMAAFDPWGQGTLVTVSS
VL: EIVLTQSPGTLSLSPGERATLSCQSSQSVYNNNYLSWFQQKPGQAPRLLIYGASTLTSGIPDRFSGSGSGTDFTLTISRLEPEDFAVYYCAGGYSGSSDKYAFGGGTKVEIKR
For B4, the Kd came to 0.0013 nM in assay [1] and 0.0032 nM in [2]. Moreover, the “HEKBlue TGFβ blocking IC50” value in assay [3] was > 200 nM; in assay [4] it was 0.16 nM; in assay [5] it was 0.17 nM.

B5: h2A10.v2.5 (antibody, human IgG1, kappa, N297G, V domains shown)
VH: EVQLLESGGGLVQPGGSLRLSCAASGFDFNSYGMSWVRQAPGKGLEWVADIVSKTYNYTTYYSDSVKDRFTISRDDSKSTVYLQMNSLRAEDTAVYYCTVAPGGSFDYWGQGTLVTVSS
VL: DIQLTQSPSSLSASVGDRVTITCRASQSVSISRFNLMHWYQHKPGKQPKLLIYRASNLASGIPSRFSGSGSGTDFTLTISSLQPEDFATYYCQHSRESPWTFGGGTKVEIKR
As to B5, in assay [6], the “fold drop in TGFβ3 binding against h2A10.v2” value is 385 fold. In addition, the Kd turned out to be 2.82 nM in assay [7] and 0.5 nM in [8]. Also, the “fold loss of TGFβ3 blocking against h2A10.v2” value in assay [9] is > 10 fold. Also, the “HEKBlue TGFβ blocking IC50” value in [10] is > 200 nM; in [11] it was > 200 nM; in assay [12], 27.4 nM.

B6: h2A10.v2.7 (antibody, human IgG1, kappa, N297G, V domains shown)
VH: EVQLLESGGGLVQPGGSLRLSCAASGFDFNSYGMSWVRQAPGKGLELVADIVSKTYNYTTYYSDSVKDRFTISRDNSKSTVYLQMNSLRAEDTAVYYCTVAPGGSFDYWGQGTLVTVSS
VL: DIQLTQSPSSLSASVGDRVTITCRASQSVSISRFNLMHWYQHKPGKQPKLLIYRASNLASGIPSRFSGSGSGTDFTLTISSLQPEDFATYYCQHSRESPWTFGGGTKVEIKR
Turning to B6, the Kd in assay [7] is 0.921 nM; in assay [8], 0.0032 nM. The “fold loss of TGFβ3 blocking against h2A10.v2” value in assay [9] was > 10 fold. Further, the figures for the “HEKBlue TGFβ blocking IC50” value in assay [10], in assay [11] and in assay [12] were > 200 nM, > 200 nM and 0.12 nM, respectively.

B7: h6F12.v2 (antibody, human IgG1, kappa, N297G, V domains shown)
VH: EVQLQESGPGLVKPSETLSLTCTVSGFSLTTYNVHWVRQPPGKGLEWMGLIWNTGGTRYNSALKSRLTISKDTSKSQVSLKLSSVTAADTAVYYCARDPVPNKWHFDFWGPGTLVTVSS
VL: DIQMTQSPSTLSASVGDRVTITCLASEDIYSNLAWYQQKPGKSPKLLIYDARSLQDGVPSRFSGSESGPEYTLTISSLQPDDFATYFCQQHHAYPFTFGQGTKVEIKR
As for B7, the Kd in assay [13] is ≤ 0.0005 nM. For the same molecule, the “fold drop in blocking against r6F12” value in assay [14] was 2.5 to 5 fold. Besides, the “HEKBlue TGFβ blocking IC50” value was > 200 nM in [15], 0.01 nM in assay [16] and > 200 nM in assay [17].

B8: h6F12.v4 (antibody, human IgG1, kappa, N297G, V domains shown)
VH: EVQLQESGPGLVKPSETLSLTCTVSGFSLTTYNVHWVRQPPGKGLEWMGLIWNTGGTRYNSALKSRLTISKDTSKSQVSLKLSSVTAADTAVYYCARDPVPNKWHFDFWGPGTLVTVSS
VL: EIVMTQSPATLSVSPGERATLSCLASEDIYSNLAWYQQKPGQSPRLLIYDARSLQDGVPARFSGSESGPEYTLTISSLQSEDFAVYFCQQHHAYPFTFGQGTKVEIKR
For B8, the Kd in assay [13] was ≤ 0.0005 nM. In addition, the “fold drop in blocking against r6F12” value in [14] was 2.5 to 5 fold. In addition, the “HEKBlue TGFβ blocking IC50” value in assay [15] is > 200 nM; in [16], 0.02 nM; in assay [17] it was > 200 nM.

B9: h6F12.v3 (antibody, human IgG1, kappa, N297G, V domains shown)
VH: EVTLKESGPVLVKPTETLTLTCTVSGFSLTTYNVHWVRQPPGKALEWMGLIWNTGGTRYNSALKSRLTISKDTSKSQVVLTMTNMDPVDTATYYCARDPVPNKWHFDFWGPGTLVTVSS
VL: EIVMTQSPATLSVSPGERATLSCLASEDIYSNLAWYQQKPGQSPRLLIYDARSLQDGVPARFSGSESGPEYTLTISSLQSEDFAVYFCQQHHAYPFTFGQGTKVEIKR
B9: the Kd in assay [13] is ≤ 0.0005 nM. Also, the “HEKBlue TGFβ blocking IC50” value in [15] is > 200 nM; in assay [16], 0.005 nM; in [17] it was > 200 nM.

Source of the values: patent US20210301005A1 (Genentech, published 2021).
